Test results as given in patent US9969795.

Molecular target: recombinant influenza HA3-protein (from H3N2, Wyoming, March 2003, Sino Biological Inc.) (Influenza virus H3N2 (Wyoming, March 2003))
Assay: SPR imaging (IBIS MX96), antibody captured on anti-human-IgG chip, HA3 1 ug/ml; global 1:1 fit in Scrubber2

Binder | Kd | koff | kon
AT10_004 mutant C (antibody, V domains shown) VH: QVQLVQSGAEVRKPGASVKVSCKASGYTFTRHGISWVRQAPGQGLEWMGWISAYTGDTDYAQKFQGRVTMTTDTSTNTAYMELRSLRSDDAAVYYCARLRLQGEVVVPPSQSNWFDPWGQGTLVTVSS VL: EIVLTQSPATLSLYPGERATLSCRASQSVSRFLAWYQQKPGQAPRLLIYDASNRATGIPARFSGSGSGTDFTLTISSLEPEDFAVYYCQQRYNWLKITFGQGTRLEIKG | 0.06 nM | 1e-06 s⁻¹ | 17000 M⁻¹ s⁻¹
AT10_004 mutant B (antibody, V domains shown) VH: QVQLVQSGAEVRKPGASVKVSCKASGYTFTRHGISWVRQAPGQGLEWMGWISAYTGDTDYAQKFQGRVTMTTDTSTNTAYMELRSLRSDDAAVYYCARLRLQGEVVVPPSQSNWFDPWGQGTLVTVSS VL: EIVLTQSPATLSLYPGERATLSCRASQSVSRYLAWYQQKPGQAPRLLIYDASNRATGIPARFSGSGSGTDFTLTISSLEPEDFAVYYCQQRYNWLKITFGQGTRLEIKG | 0.05 nM | 1e-06 s⁻¹ | 19000 M⁻¹ s⁻¹
